Laboratory results from article PMC3020774 (The Journal of Biological Chemistry, 2010).

B2: recombinant ZHD5-MBP fusion protein (natural protein)
chain: MDMRSHEMIERRREDNGNNNGGVVISNIISTNIDDNCNGNNNNTRVSCNSQTLDHHQSKSPSSFSISAAAKPTVRYRECLKNHAASVGGSVHDGCGEFMPSGEEGTIEALRCAACDCHRNFHRKEMDGVGSSDLISHHRHHHYHHNQYGGGGGRRPPPPNMMLNPLMLPPPPNYQPIHHHKYGMSPPGGGGMVTPMSVAYGGGGGGAESSSEDLNLYGQSSGEGAGAAAGQMAFSMSSSKKRFRTKFTTDQKERMMDFAEKLGWRMNKQDEEELKRFCGEIGVKRQVFKVWMHNNKNNAKKPPTPTTTL

Tests used:
[1] = molecular target: B2; assay: native gel or EMSA
native gel or EMSA = molecular target: the molecule itself; assay: native gel or EMSA
ZHD5-MBP = molecular target: T1, ZHD5-MBP (UniProt Q9FRL5 1-309); assay: EMSA
T1 sequence: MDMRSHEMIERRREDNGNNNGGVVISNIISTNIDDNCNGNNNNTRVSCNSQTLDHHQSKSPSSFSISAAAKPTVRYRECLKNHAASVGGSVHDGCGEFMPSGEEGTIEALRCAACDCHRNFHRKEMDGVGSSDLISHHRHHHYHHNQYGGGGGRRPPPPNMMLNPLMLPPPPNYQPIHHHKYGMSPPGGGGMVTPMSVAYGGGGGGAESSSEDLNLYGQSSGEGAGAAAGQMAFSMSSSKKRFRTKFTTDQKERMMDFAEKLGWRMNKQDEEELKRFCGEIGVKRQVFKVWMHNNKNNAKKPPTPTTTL

B1: recombinant MIF1-GST fusion protein (natural protein)
chain: MMKKRQMVIKQRSRNSNTSSSWTTTSSSSSSSEISNVRYVECQKNHAANIGGYAVDGCREFMAAGVEGTVDALRCAACGCHRNFHRKEVDTEVVCEYSPPNA
Q: Does B1 bind [1]?
A: binds

Q: Does B2 bind (native gel or EMSA)?
A: binds

B3: ATTA EMSA probe (dsDNA)
DNA 1: CAGTGTCTTGTAATTAAAAA
DNA 2: TTTTTAATTACAAGACACTG
Q: Does B3 bind (ZHD5-MBP)?
A: binds
